{"source": "the nanobody polyreactivity screen of Harvey et al. (2022)", "data": [{"assay": "yeast display, Sf9 membrane polyspecificity reagent, FACS + sequencing; frameworks hold sequencing errors", "in_short": "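Genes from sorted yeast were amplified by colony PCR, read by MiSeq 2 × 250 sequencing and filtered on CDR length. These cells carried a synthetic nanobody library in Saccharomyces cerevisiae BJ5465 and were sorted by FACS into low and high (top ~1%) gates on anti-HA and streptavidin fluorescence. Polyreactivity is labelled according to the gate of origin.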", "values": [{"sequence": "QGQLVESGGGLVQAGGSLRLSCAASGRIFRGYAMGWYRQGPGNEREWVAAFSRRGGSTYYADSVKGRFTISRDNAKNTVYLQMNSLKPVDTAVYYCNADGVHYVAYAGGYWGQGTQVTVSS", "polyreactivity (PSR sort gate)": "high polyreactivity"}, {"sequence": "QGQLVESGGGLVQAGGSLRLSCAASGRTFNYYAMGWYREAPGKEWELGAAITNRGGSTYYADSVKGRFTISRDNAKNTVYLQMNSLKPEDTAVYYSAARGKYPSASGYTYSYGYWGQGTQVTVSS", "polyreactivity (PSR sort gate)": "high polyreactivity"}, {"sequence": "QGQLVESGGGLVQAGGSLRLSCAASGRTFTAYAMGWYRQAPRKERELVASISSGSSTYYADSVKGRFTISRDNAKYTVYLQMNSLKPEDTAVYYCAARDGYRYYKGKRMGYWGQGTQVTVSS", "polyreactivity (PSR sort gate)": "high polyreactivity"}, {"sequence": "QGQLVESGGGLVQAGGSLRLSCAASGRTFVDYDMGWYRQAAGKERELVADINSGGSTYYADSVKGRFTISRDNAKNTVYLQMNSLKREDSAVYYCAADDGWGYISSYDYEYWGQGTQVTVSS", "polyreactivity (PSR sort gate)": "high polyreactivity"}, {"sequence": "QGQLVESGGGLVQAGGSLRLSCAASGRTLYYYAMGWYRQAPGKERELVAAISGGGRTYYADSVKGRFTISRDNAKKTVDLQMNSLKPEDTAVYYCAARYRKSGLDNYWGQGTQVTVSS", "polyreactivity (PSR sort gate)": "high polyreactivity"}, {"sequence": "QGQLVESGGGLVQAGGSLRLSCAASGRTYDYNAMGWYRQAPWKEWELVAAISSGGSITHYADSVKGRFTISRDNAKNTVYFQMYSLKPEDTAVYYCNAAHLAHRFIGYTRWNYYYWGQGTQVTVTS", "polyreactivity (PSR sort gate)": "high polyreactivity"}, {"sequence": "QGQLVESGGGLVQAGGSLRLSCAASGSIFGNAMGWYIQAPGKEREFVAAISSSGSSTYYADSVKGRFTISRDNAKNTVYLQMNSLKPEDTAVYYCAARPPRVSYEYWGQGTQVTVSS", "polyreactivity (PSR sort gate)": "high polyreactivity"}, {"sequence": "QGQLVESGGGLVQAGGSLRLSCAASGSIFYYNDMGWYRQAPGKEWELVATITNGGGTNYADSVKGRFTISRDNAKYTVYLQMNSLKPEDTAVYYCAADLWPTVTASGDLIVKFDYWGQGTQVTVSS", "polyreactivity (PSR sort gate)": "low polyreactivity"}, {"sequence": "QGQLVESGGGLVQAGGSLRLSCAASGSISLYAMGWYRQAPGKERELVAAITKSGGSTYYADSVKGRFTISRDNAKNTVYLQMHSLKPEDTAVYYCNRGGGERKYNYWGQGTQVTVSS", "polyreactivity (PSR sort gate)": "high polyreactivity"}, {"sequence": "QGQLVESGGGLVQAGGSLRLSCAASGSTFDNYAMGWYRQAPGKERELVAAISSSSSRTYYADSVKGRFTISRDNAKNTVYLQMNSLKPADTAVYYCAKRRSIGYYYWGQGTQVTVSS", "polyreactivity (PSR sort gate)": "high polyreactivity"}, {"sequence": "QGQLVESGGGLVQAGGSLRLSCAASGSTFTIYVMGWYRQAPGKERELVAGISWSGGSTYYTDSVKGRFTISRDNAKNTVYLQMNSLKPEDTAVYYCNADAQWSVWSYIIDYDYWGQGTQVTVPS", "polyreactivity (PSR sort gate)": "low polyreactivity"}, {"sequence": "QGQLVESGGGLVQAGGSLRLSCAASGSTFYIYAMGWYRQAPGKERELVARISGSGGSTYYADSVKGRFTISRDNAKNTVYLQMNSLKPEDTAVYYCAADDIYKYYQYYAFPYYRYDYWGQGTQVTVSS", "polyreactivity (PSR sort gate)": "low polyreactivity"}, {"sequence": "QGQLVESGGGLVQAGGSLRLSSAASGRTFPSYAMGWYRQAPGKERELVAAITVSGGNTYYADSVKGRFTISRDNAKNTVYLQMNSLKAEDTAVYYCNTASYVSWYVHYYYWGLGTQVTVSS", "polyreactivity (PSR sort gate)": "low polyreactivity"}, {"sequence": "QGQLVESGGGLVQAGGSLRLSSAASGSIFFQNVMGWYRQAPGKERELVAAFSSSGDSTYYADSVKGRFTISRDNAKNTVYLQMISLKPEDTAVYYCAAEPEYVSGPYDYWGQGTQVTVSS", "polyreactivity (PSR sort gate)": "low polyreactivity"}, {"sequence": "QGQLVESGGGLVQAGGSLRLTCAASGLTFRRYTMGSYRQAPGNERELVAPISGSGGSTYYADSVKGRFTISRDSAKNTVYFQMNSLKPEDTAVSYCNAPYLHYVIVFTDYSQRYDYWGQGTQVTVSS", "polyreactivity (PSR sort gate)": "high polyreactivity"}, {"sequence": "QGQLVESGGGLVQEGGSLRLSCAASGRIFQNYAMGWYRQAPGKERELVATIDIGGSTKYADSVKGRFTISRDNAKNTVYLQMNSLKPEDTAVYYCNVPAFFYGYYRFDYWGQGTQVTVSS", "polyreactivity (PSR sort gate)": "high polyreactivity"}, {"sequence": "QGQLVESRGGLVQAGGSLRLSCAASGFNLAYYAMGWYRQAPGKERELVAAISIGSSTDYADSVKGRFTISRDNAKNTVYLQMNSLKPEDTAVFYCAKRGPQVWTFDYDSWGQGTQVTVSS", "polyreactivity (PSR sort gate)": "low polyreactivity"}, {"sequence": "QGQLVESWGGLVQAGGSLRLSCAATRRTFLYYVMGWYRQAPGKETELVAAITNRGGSTYYADSVKGRFTISRDNAKNNVYVLMKSLKQEDTAVYYSNAPYGVYWSSTYYFWGQGTQVTVSS", "polyreactivity (PSR sort gate)": "high polyreactivity"}, {"sequence": "QGQLVQSGVGLVQAGGILRLSCASSGITFASYAMGWYRPAPGKEMELVATITTGGTNTYYADSVKARFTISRDNAKNTVYLQMNSLKPEDTAVYSSAADSTQYVLSGNYDYWGQGTQVTVSS", "polyreactivity (PSR sort gate)": "low polyreactivity"}, {"sequence": "QGQLVVSGGGLVQAGGSLRLSCAASGRISSSYAMGWYRQAPGKEREFVAAIRSSGGSTYYADSVKGRFTISRDYAKNTVYLQMISLKPVDTAVYYCNKVGFYQSRKYYYWGQATQVTVSS", "polyreactivity (PSR sort gate)": "high polyreactivity"}, {"sequence": "QHQIVESGGGLVQAGGSLRLSCAASGSTIYRYAMGWYRQAPGKERELVAAISSSGGSTYYADSVKGRFTISRDNAKNTVYLQMNSLKPEDTAVYYCNAADRVRRFDYWGQGTQVTVSS", "polyreactivity (PSR sort gate)": "low polyreactivity"}, {"sequence": "QIHLVESGGGLVQAGGSLRLSCAASGGIFYINAMGWYRQAPGKEREFVAAITESSDITYYADSVKGRFTISRDNAKNTVYLQMNSLKPEDSAVYYCAAEFVRSGDDYWGQGTQVTVSS", "polyreactivity (PSR sort gate)": "low polyreactivity"}, {"sequence": "QIQLEESGGGLVQAGGSLRLSCAASGSIFDYNTMGWYSQAPGKERELVAAISSSGGSTYYADSVKGRFTISRDNAKNSVYLQMNSLKPEDTAVYYCAAVNGYQYPPYYFNGYDYWGQGTQVTVSS", "polyreactivity (PSR sort gate)": "low polyreactivity"}, {"sequence": "QIQLVESGGGLVQAGGSLRLSCAASGRIFFRNAMGWYRQAPGKERELVAGITWSGGSTYYADSVKGRFTISRDNAKNTVYLQMNSLKPEDTAVYYCNAVWRYRVLCDYWGQGTQVTVSS", "polyreactivity (PSR sort gate)": "high polyreactivity"}, {"sequence": "QIQLVESGGGLVQAGGSLRLSCAASGRTFYSYAMGWYRQAPGKERELVAAINRGASTYYADSVKGRFTISRDNAKNTVYFQMNSLKPEDTAVYYCNAQYYYIPSSTDYDYWGQGTQVTVSS", "polyreactivity (PSR sort gate)": "high polyreactivity"}, {"sequence": "QIQLVESGGGLVQAGGSLRLSCAASGSTLPDYAMGWYRQAPGKERELVADITARGGTYYADSVKGRFTISRDNAKNTVYLQMNSLKPEDTAVYYCAARISGRWYEYWGQGTQVTVSS", "polyreactivity (PSR sort gate)": "high polyreactivity"}, {"sequence": "QLLLQESVGGLVQAGGSLRLSCAASGSIFLFYTMGAYRQAPVKELEFVAGITLGTTTYNADSVKGRFTISRDNVKNTVYLQMNSLKPEDTAVYYCAVAVGHYTEFWYWGQGTQVTMSS", "polyreactivity (PSR sort gate)": "high polyreactivity"}, {"sequence": "QLQHVESGGGLVQAGGSLRLSCADSGRTFQYYAMGSYRQPPGKESELVAAINTSGGRTSYADSVKGRFTISRDNAKNTVYLQMNILKPEDTAVYYCAAKPFSYVYSSYYYWGQGTQVTVSS", "polyreactivity (PSR sort gate)": "high polyreactivity"}, {"sequence": "QLQHVESWGGLVQAGGSLRLSCAASGRTFRANDKRSYRQAPGKQSELVAAISQSGGSRYYADSVKGRFTISRDNAKNTVYLQLNSLKPEDTAVYYCNALGRISNHTLYDYWGQGTQVTVSS", "polyreactivity (PSR sort gate)": "low polyreactivity"}, {"sequence": "QLQLEESAGGLVQAGGSLRLSCAASGSIFGPYAMGSYSQAPGKERELVAAITWSGDSTYYADSVKGRFTISRDNAKNTVYLQMNSLKPEDTAVSYCNADWGQGTQVTVSS", "polyreactivity (PSR sort gate)": "low polyreactivity"}, {"sequence": "QLQLEESGGGLVQAGGSLSLRCAASGRIFSRYPMGWYRQAPGKERELVAAISSRAGSTYYADSVKGRFTISRDNAKNTVYLQMNSLKPEDTAVYYCNNPSYSCSSPYDHWGQGTQVTVSS", "polyreactivity (PSR sort gate)": "high polyreactivity"}, {"sequence": "QLQLEESRGGLVQAGGSLRLSCAASGGTCFSYAMGCYRQAPGKERELVAGIRNGGSTKYADSVKGRFTISRDNAKNTVYLQMNSLNPEDTAVYYCAARYYRPYTSSWAHNYRLDYCGQGTQVTVSS", "polyreactivity (PSR sort gate)": "high polyreactivity"}, {"sequence": "QLQLGESGGGLVQAGASLRLSFAPSGRLFDRYAMGWYRTAPATERELVASIRSGGSTNYADSVKGRFTISRDNAKNTGYLQMNSLNPEDTAVYYCAAVLRPVRFYSGYYYWGQGTQVTVSS", "polyreactivity (PSR sort gate)": "high polyreactivity"}, {"sequence": "QLQLHESGGGLVQAGGGLRLICAASGSISSTVFMGWYRQAPGKEREPVAAIAPCTTTYYADSLKGRFTISRDNAKNTVYLQKNSLRPEDTAVYYCAVFTDNRVAFLYWGQGTQVTLSS", "polyreactivity (PSR sort gate)": "low polyreactivity"}, {"sequence": "QLQLQESGGGLVQAGGSLRLSCAESGTIFGWDRMGRYRQAPGKERELVATIDNRGSTNYADSVKGRFTISRDNAKNTLFPQMNSLKPDDTEVYYCAVVGPTPQYHLYWGEGTQVTVSS", "polyreactivity (PSR sort gate)": "high polyreactivity"}, {"sequence": "QLQLVESAGGLVQAGGSLRLSCAASGIIFSYYAMGWYRKAPGKERELVAAISWSGGSTYYADSVKGRFTISRDNAKNTVYLQLNSLKPEDTAVYYCAADDYLAYEYWGQGTQVTVSS", "polyreactivity (PSR sort gate)": "high polyreactivity"}, {"sequence": "QLQLVESGGGIVQAGGRLRLSCAASGLIFYLYAMGWYRQAPGKERELVATITTGGRTNYADSVKGRFTISRDNAKISVYLQMNSLTPVDTAVYYCAATHRGQGGYYWGQGSQVTVSS", "polyreactivity (PSR sort gate)": "low polyreactivity"}, {"sequence": "QLQLVESGGGIVQAGGSLRLSCAASGSTFLRNAMGRYRQAPGKKGSGVATISYDGYSTYYADSVKGRLTISRDNAKNSFYLQMNSLKPEDTAVYYCAASYSLTFWDKDDYWGQGSQVTVSS", "polyreactivity (PSR sort gate)": "low polyreactivity"}, {"sequence": "QLQLVESGGGLDQAGGSLRLSCAASAFTFGYYSKGWNRQAPGKQTELVASISRSGGSTNYADSVKGRFTISRDNAKKTVYLQMNSLIPEDNAVYYCNNRVNTYRSVSRRYDYWGQGTQVTLSS", "polyreactivity (PSR sort gate)": "high polyreactivity"}, {"sequence": "QLQLVESGGGLVQAGARLRLSCAASGSIFRFNPMGWYIPAPGKERELVAAITSSGDSTYYADSVKGRFTISRDNAKYTVYLQMNCLKPEDTAVSDCAAVRNRFIGWTVRYNWARIYNYWGQGTQVTVSS", "polyreactivity (PSR sort gate)": "high polyreactivity"}, {"sequence": "QLQLVESGGGLVQAGCSLRLSFAASVIICWANAMGCYIHAPGKERELVASITSGGSTYYADSVKGRFTISRDNAKTTVYFQMNSLKPEDTAVYYCAADPYGWWDWHTLGTYDYWGQGTQVTVSS", "polyreactivity (PSR sort gate)": "low polyreactivity"}, {"sequence": "QLQLVESGGGLVQAGGRLRLTCAASGRTFPYYFMGWYRPAPGKERELVAAINSGGRTNYADSVKGLFTISRDNAKNTVYLQMNSLKPEDTAVYYCTKRGHPARLGYYYWGQGTQVTVSS", "polyreactivity (PSR sort gate)": "low polyreactivity"}, {"sequence": "QLQLVESGGGLVQAGGSLRISCAASGFTFRYYAMGWYRQAPGKERKFVAGIDFGAITNYADSVKGRFTISRDNAKNTEYLQMSSLKPEDTAVYYCAAGVYDWYAYDYWGQGTQVTVSS", "polyreactivity (PSR sort gate)": "high polyreactivity"}]}]}
